Legend:
[1] = target: biotinylated bovine serum albumin (BSA) (Bos taurus, UniProt P02769); experiment: Biopanning against biotinylated BSA to identify target-unrelated peptides; format: binding; conditions: phage displaying the peptide, round 3
Source text: The phage library was then screened to identify target-unrelated peptides by using biotinylated bovine serum albumin (“BSA”) as a target for biopanning.

biotinylated OprF1 = target: T1, biotinylated OprF1 (Pseudomonas aeruginosa, UniProt P13794); experiment: Unamplified competitive solution biopanning of 14 monoclonal phages against biotinylated OprF1; percent abundance among 30 clones as relative affinity; format: binding, P. aeruginosa; conditions: Bushnell-Haas pH 8.5 with 1% v/v Jet-A, 30 randomly selected clones
T1 construct: Biotinylated at its N-terminal, an OprF1 synthetic peptide was used for solution biopanning screening
T1 sequence (P13794 whole entry, looked up): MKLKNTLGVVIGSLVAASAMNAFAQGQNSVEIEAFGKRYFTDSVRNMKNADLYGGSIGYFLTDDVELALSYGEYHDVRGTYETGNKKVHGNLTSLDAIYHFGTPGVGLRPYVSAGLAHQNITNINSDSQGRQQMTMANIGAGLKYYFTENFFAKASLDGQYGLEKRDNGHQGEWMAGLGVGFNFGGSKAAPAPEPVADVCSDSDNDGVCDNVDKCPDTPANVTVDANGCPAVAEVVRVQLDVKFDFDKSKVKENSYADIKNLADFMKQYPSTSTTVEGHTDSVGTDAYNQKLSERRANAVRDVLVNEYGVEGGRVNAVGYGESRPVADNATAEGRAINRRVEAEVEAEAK

OprF1 = target: T2, OprF1 (Pseudomonas aeruginosa, UniProt P13794); experiment: Solution-phase biopanning of Ph.D.-7 phage library against OprF1 with amplification, physiological conditions, clone abundance; format: binding, P. aeruginosa; conditions: four rounds with amplification, physiological conditions (pH 7)
T2 sequence (P13794 whole entry, looked up): T1 sequence (P13794 whole entry, looked up)
Source text: Biotinylated at its N-terminal, an OprF1 synthetic peptide was used for solution biopanning screening of a commercially-available M13 bacteriophage library displaying heptameric peptides at the N-terminal of P3 coat protein. Solution-phase biopanning provided the benefit of including the availability of all the OprF1 aa residues for interaction with the potential peptide binder with lessened likelihood of isolating unspecific peptides that might bind to the capture element used to purify the phage-antigen complex (i.e., magnetic or protein G beads).
Generally, solution-phase biopanning was carried out as described by the manufacturer (New England Biolabs, Ipswich, Mass.) with some modifications, including the changing of pH from 7.0 to 5.5 and 8.5 and adding 1% v/v of Jet A fuel. The first round of selection was carried out by diluting Ph.D.-7 bacteriophage library 100-fold in 0.1% Tris buffer saline plus Tween 20 (0.1% TBST) at the appropriate pH for selection plus fuel. Subsequently, the phage library was incubated with 1 μg of N-terminal biotinylated target protein fragment (OprF1: […] (SEQ. ID No. 1), OprF2: ADIKNLADFMK QYPSTSTT (SEQ. ID No. 2), Opr86: […] STP (SEQ. ID No. 3)) for 1 hr at 25° C. […] Titer of the amplified phage (more than 10^10 pfu/mL) was determined by infection into E. coli ER2738 and subsequent growth in selective medium containing X gal/IPTG. […]

Sequence of biotinylated bovine serum albumin (BSA) (P02769 25-607): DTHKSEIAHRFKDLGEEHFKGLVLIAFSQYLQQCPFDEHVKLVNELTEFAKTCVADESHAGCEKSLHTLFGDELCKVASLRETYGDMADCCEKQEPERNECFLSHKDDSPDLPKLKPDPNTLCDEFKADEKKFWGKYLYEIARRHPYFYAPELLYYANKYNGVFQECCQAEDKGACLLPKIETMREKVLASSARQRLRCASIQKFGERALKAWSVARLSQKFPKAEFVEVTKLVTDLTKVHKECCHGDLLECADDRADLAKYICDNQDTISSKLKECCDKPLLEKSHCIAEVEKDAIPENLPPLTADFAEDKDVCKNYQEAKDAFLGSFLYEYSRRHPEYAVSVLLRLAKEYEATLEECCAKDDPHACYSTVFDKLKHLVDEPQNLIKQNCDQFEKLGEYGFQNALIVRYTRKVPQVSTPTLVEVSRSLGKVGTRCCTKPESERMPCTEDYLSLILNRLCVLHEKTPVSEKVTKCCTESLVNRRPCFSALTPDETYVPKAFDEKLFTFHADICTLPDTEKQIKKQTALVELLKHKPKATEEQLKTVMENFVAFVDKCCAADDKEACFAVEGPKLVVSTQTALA

“PPKINIM (Artificial sequence obtained through biopanning.) [target-unrelated, cross-reacts with BSA]” was tested, and the “cross-reaction with BSA” value [1] was “cross-react with BSA”, the “% Abundance” value (biotinylated OprF1) was 3% and the “abundance based on round 4 clones” value (OprF1) was 80%.

Reference: patent US10295537B2, “Biorecognition elements for rapid detection of biocontamination” (The United States of America, as represented by the …, priority 2017, dated 2019)
